What was measured:
human IL-33 = molecular target: T1, human IL-33 (human, UniProt O95760 112-270, limits assumed); experiment: cell-based or functional assay
T1 sequence (looked up): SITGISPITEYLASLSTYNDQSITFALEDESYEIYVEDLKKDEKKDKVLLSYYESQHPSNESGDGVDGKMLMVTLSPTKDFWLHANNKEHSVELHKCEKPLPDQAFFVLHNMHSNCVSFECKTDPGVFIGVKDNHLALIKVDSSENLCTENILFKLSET

cyno IL-33 = molecular target: T2, cyno IL-33 (cynomolgus monkey, UniProt A0A2K5W3I1 112-269); experiment: cell-based or functional assay
T2 sequence: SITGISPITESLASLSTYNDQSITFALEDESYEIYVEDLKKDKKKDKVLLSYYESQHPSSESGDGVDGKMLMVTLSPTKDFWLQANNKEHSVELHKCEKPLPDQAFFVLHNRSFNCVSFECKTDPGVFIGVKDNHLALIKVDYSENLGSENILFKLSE

human IL-33 (His-tagged) = molecular target: T3, human IL-33 (His-tagged) (human, UniProt O95760 112-270, limits assumed); experiment: SPR Biacore T200, antibody captured on anti-rat Fc, His-tagged IL-33 analyte, 25 C, 1:1 Langmuir
T3 construct: not shown: His tag
T3 sequence (looked up): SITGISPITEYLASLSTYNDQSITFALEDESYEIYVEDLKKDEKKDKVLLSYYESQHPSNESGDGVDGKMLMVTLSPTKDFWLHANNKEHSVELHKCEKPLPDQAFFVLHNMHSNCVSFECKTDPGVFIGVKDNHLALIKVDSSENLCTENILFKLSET
Procedure: (§1) The binding kinetics of top anti-IL-33 antibodies were measured using SPR on a BIACORE® T200 instrument (GE Healthcare). A CM5 Series S sensorchip was coated with anti-rat Fc (Jackson) to create a capture surface. Antibody binding was measured to human, cyno, rat, mouse and oxidized IL-33 (His-tagged) using a concentration series starting with 50 nM with 1:3 dilutions. Sensorgrams for binding of cytokine were recorded using an injection time of 2 min with a flow rate of 30 μl/min, at a temperature of 25° C., and with a running buffer of 10 mM HEPES, pH 7.4, 150 mM NaCl, 3 mM EDTA, and 0.005% TWEEN®20. After injection, disassociation of the IL-33 from the antibody was monitored for 10 min in running buffer. The surface was regenerated between binding cycles with a 30μ injection of 10 mM glycine HCl pH 1.7. After subtraction of a blank which contained running buffer only, sensorgrams observed for cytokine binding to anti-IL-33 antibody were analyzed using a 1:1 Langmuir binding model with software supplied by the manufacturer to calculate the kinetics and binding constants.

cyno IL-33 (His-tagged) = molecular target: T4, cyno IL-33 (His-tagged) (cynomolgus monkey, UniProt A0A2K5W3I1 112-269); experiment: as above
T4 construct: not shown: His tag
T4 sequence: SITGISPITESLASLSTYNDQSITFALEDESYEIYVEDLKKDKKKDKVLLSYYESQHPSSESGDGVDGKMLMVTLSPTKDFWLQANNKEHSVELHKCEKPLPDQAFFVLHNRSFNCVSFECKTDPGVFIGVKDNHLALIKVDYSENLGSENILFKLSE
Procedure: as §1

rat IL-33 (His-tagged) = molecular target: T5, rat IL-33 (His-tagged) (rat, UniProt Q66H70 109-264, limits assumed); experiment: as above
T5 construct: not shown: His tag
T5 sequence (looked up): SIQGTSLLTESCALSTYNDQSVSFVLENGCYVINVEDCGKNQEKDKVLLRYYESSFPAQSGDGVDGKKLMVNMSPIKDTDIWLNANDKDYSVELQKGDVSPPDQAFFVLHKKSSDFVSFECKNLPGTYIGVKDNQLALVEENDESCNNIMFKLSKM
Procedure: as §1

mouse IL-33 (His-tagged) = molecular target: T6, mouse IL-33 (His-tagged) (mouse, UniProt Q8BVZ5 109-266); experiment: as above
T6 construct: also called murine IL-33; not shown: His tag
T6 sequence (looked up): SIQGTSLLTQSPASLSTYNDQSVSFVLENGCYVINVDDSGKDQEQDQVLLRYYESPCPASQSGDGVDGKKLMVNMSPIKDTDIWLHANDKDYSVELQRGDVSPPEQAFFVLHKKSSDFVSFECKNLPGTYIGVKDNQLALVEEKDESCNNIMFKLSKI
Procedure: as §1

IC50 (M), IL-33 neutralization activity, HEK-BLUE IL-33 cells (SEAP reporter), human IL-33 at 160 pM (human IL-33): 3.6e-11 M | IC50 (M), IL-33 neutralization activity, HEK-BLUE IL-33 cells (SEAP reporter), cyno IL-33 at 300 pM (cyno IL-33): 1.6e-10 M | Kd (human IL-33 (His-tagged)): 0.021 nM | koff (human IL-33 (His-tagged)): 2.28e-05 s⁻¹ | kon (human IL-33 (His-tagged)): 1.08e+06 M⁻¹ s⁻¹ | Kd (cyno IL-33 (His-tagged)): 0.0392 nM | koff (cyno IL-33 (His-tagged)): 2.24e-05 s⁻¹ | kon (cyno IL-33 (His-tagged)): 570000 M⁻¹ s⁻¹ | Kd (rat IL-33 (His-tagged)): 1.6 nM | koff (rat IL-33 (His-tagged)): 0.000219 s⁻¹ | kon (rat IL-33 (His-tagged)): 140000 M⁻¹ s⁻¹ | Kd (mouse IL-33 (His-tagged)): 37.4 nM | koff (mouse IL-33 (His-tagged)): 0.00213 s⁻¹ | kon (mouse IL-33 (His-tagged)): 56800 M⁻¹ s⁻¹
B1: rat anti-human IL-33 hybridoma antibody 1E1 (antibody, V domains shown)
VH: EVQLVESGGGLVQPGTSLKLSCLASGFTFNNYWMTWIRQAPGKGLEWIASITYTGGGTYYPDSVKGRFTISRDDAKSTLYLQMNSLRSEDTATYYCTRANYYYNTYGGFPYWGQGTLVTVSS
VL: DIQMTQSPASLSASLGETVSIECLASEGFSNDLAWYQQKSGKSPQLLIYAASRLQDGVPSRFSGSGSGTRFSLKISGMQPEDEADYFCQQGSKYPLTFGSGTKLEIK
notes: Purified rat hybridoma IgG; also called clone 1E1; hybridoma derived clone 1E1

Reference: US20210284725A1 (Genentech, published 2021)
